Data from patent publication US20240042032A1 (TENEOBIO, published 2024).
Numbering of substitutions follows the chain as printed.

B1: anti-CD19 heavy chain-only antibody (UniAb) clone ID 370083 (antibody, V domains shown)
VH: QVQLVESGGGLVKPGGSLRLSCAASGFTFSDYYMSWIRQAPGKGLEWVSYMSSSGSTIYYADSVKGRFTISRDNAKNSLYLQMTSLRAEDTAVYYCARGGIAATGTWGQGTLVTVSS
notes: Heavy chain-only antibody with no light chain, tested as purified UniAb and detected with anti-human IgG; Only the VH is tied to the clone
B2: anti-CD19 heavy chain-only antibody (UniAb) clone ID 370034 (antibody, V domains shown)
VH: B1 VH with N77K, T84N, T104A
notes: Heavy chain-only antibody with no light chain, tested as purified UniAb and detected with anti-human IgG; Only the VH is tied to the clone; also called HCAb 370034

Target: T1, human CD19 on CD19+ cells (Raji, Daudi, Ramos, SU-DHL-10, Nalm6) (human, UniProt P15391 20-556)
T1 construct: whole, on cells; also called B-Lymphocyte Surface Antigen B4
T1 sequence (looked up): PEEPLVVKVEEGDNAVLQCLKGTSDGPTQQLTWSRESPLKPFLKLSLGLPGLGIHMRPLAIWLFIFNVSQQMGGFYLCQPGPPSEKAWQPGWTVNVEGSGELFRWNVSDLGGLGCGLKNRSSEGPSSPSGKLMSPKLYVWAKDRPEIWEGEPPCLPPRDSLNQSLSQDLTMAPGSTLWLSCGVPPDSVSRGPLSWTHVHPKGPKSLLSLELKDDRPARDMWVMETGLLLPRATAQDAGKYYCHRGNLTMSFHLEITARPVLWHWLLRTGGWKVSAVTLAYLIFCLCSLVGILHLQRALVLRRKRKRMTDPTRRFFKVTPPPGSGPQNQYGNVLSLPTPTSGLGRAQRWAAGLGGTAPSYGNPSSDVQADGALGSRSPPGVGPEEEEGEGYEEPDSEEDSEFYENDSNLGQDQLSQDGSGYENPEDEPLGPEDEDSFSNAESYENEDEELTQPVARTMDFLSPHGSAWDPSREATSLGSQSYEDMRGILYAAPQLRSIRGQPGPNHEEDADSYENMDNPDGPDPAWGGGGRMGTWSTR
Experiment: cell-binding assay on CD19+ cells

Row | Binder | binding result
1 | B1 | binds
2 | B2 | binds
